The record followed here is IntAct's records for PubMed 24508339.

B1: Mitochondrial dynamics protein MID51 (Mus musculus), Q8BGV8 (parent)
chain: MAGAGERKGKKDDNGIGTAIDFVLSNARLVLGVGGAAMLGIATLAVKRMYDRAISAPTSPTRLSHSGKRSWEEPNWMGSPRLLNKDMKAGLSRSLQTLPTDSSAFDTDTFCPPRPKPLARRGQVDLKKSRLRMSLQEKLLSYYRNRAAIPAGEQARAKQAAVDICAELRSFLRAKLPDMPLRDMYLSGSLYDDLQVVTADHIQLIVPLVLEQNLWSCIPGEDTIMNVPGFFLVRRENPEYFPRGSSYWDRCVVGGYLSPKTVADTFEKVVAGSINWPAIGSLLDYVIRPAPPPEALTLEVQYEKDKHLVIDFLPSVTLGDTVLVARPHRLAQYDNLWRLSLRPAETARLRALDQADSGCRSLCLKILKAICKSTPALGHLTASQLTNVILHLAQEEADWSPDMLADRFLQALRGLISYLEAGVLPSALNPKVNLFAELTPQEIDELGYTLYCSLSEPEVLLQT

The variants in one test derive from B1. The settings on record: with Dnm1l.
Regarding R234A;R235A;N237A, the “effect of a mutation on the interaction” value was “disrupting interaction strength”.
With E239A;Y240A;R243A, the “effect of a mutation on the interaction” value was “decreasing interaction strength”.
Turning to V253E;G254E;G255E, the “effect of a mutation on the interaction” value was “disrupting interaction strength”.

Variants of B1 are the subject of another test. The note with it: with Dnm1l. The source holds these as a separate data set.
As for E239A;Y240A;R243A, the “effect of a mutation on the interaction” value was “disrupting interaction strength”.
